The target of assay [1] is T1, XQ2 (macrocyclic (cyclic) peptide). As to the kind of experiment: SPR. (In general: SPR reads the build-up and loss of mass on a sensor chip optically.)
Assay [2] deals with T1, XQ2. As to the kind of experiment: MST; 2 M (NH4)2SO4.

One may read the Kd as the concentration at which binding is half-saturated. High values mean weaker binding, low ones tighter binding.

B1: N-terminally truncated human cGAS (hcGAS-ΔN, residues 147–522) (domain or fragment)
chain: PVSAPILVRRDAAPGASKLRAVLEKLKLSRDDISTAAGMVKGVVDHLLLRLKCDSAFRGVGLLNTGSYYEHVKISAPNEFDVMFKLEVPRIQLEEYSNTRAYYFVKFKRNPKENPLSQFLEGEILSASKMLSKFRKIIKEEINDIKDTDVIMKRKRGGSPAVTLLISEKISVDITLALESKSSWPASTQEGLRIQNWLSAKVRKQLRLKPFYLVPKHAKEGNGFQEETWRLSFSHIEKEILNNHGKSKTCCENKEEKCCRKDCLKLMKYLLEQLKERFKDKKHLDKFSSYHVKTAFFHVCTQNPQDSQWDRKDLGLCFDNCVTYFLQCLRTEKLENYFIPEFNLFSSNLIDKRSKEFLTKQIEYERNNEFPVFDEF
As for B1, in the assay with XQ2 [1], the Kd is 86.5 µM.

B2: fluorescent labeled hcGAS (enzyme)
chain: MQPWHGKAMQRASEAGATAPKASARNARGAPMDPTESPAAPEAALPKAGKFGPARKSGSRQKKSAPDTQERPPVRATGARAKKAPQRAQDTQPSDATSAPGAEGLEPPAAREPALSRAGSCRQRGARCSTKPRPPPGPWDVPSPGLPVSAPILVRRDAAPGASKLRAVLEKLKLSRDDISTAAGMVKGVVDHLLLRLKCDSAFRGVGLLNTGSYYEHVKISAPNEFDVMFKLEVPRIQLEEYSNTRAYYFVKFKRNPKENPLSQFLEGEILSASKMLSKFRKIIKEEINDIKDTDVIMKRKRGGSPAVTLLISEKISVDITLALESKSSWPASTQEGLRIQNWLSAKVRKQLRLKPFYLVPKHAKEGNGFQEETWRLSFSHIEKEILNNHGKSKTCCENKEEKCCRKDCLKLMKYLLEQLKERFKDKKHLDKFSSYHVKTAFFHVCTQNPQDSQWDRKDLGLCFDNCVTYFLQCLRTEKLENYFIPEFNLFSSNLIDKRSKEFLTKQIEYERNNEFPVFDEF
modifications: fluorescent label (dye and site not stated)
B2 displayed a Kd with XQ2 [2] of 1800 nM.
